These results are taken from PMC11225796.

Common to all, as to assay: cross-linking
For assay [1], the target named is MBP-Z(6His).
Assay [2] has as its target MBP-Z(6Tyr).
Assay [3] deals with MBP-Z(6His). The source holds these as a separate data set.
Assay [4] deals with MBP-Z(6Tyr). This is another data set of the same source.
The target of assay [5] is MBP-Z(6Tyr). This is another data set of the same source.
The target of assay [6] is MBP-Z(6His). The source holds these as a separate data set.
Assay [7] deals with MBP-Z(6Tyr). This is another data set of the same source.
Assay [8] addresses MBP-Z(6His). The source holds these as a separate data set.
Assay [9] has as its target MBP-Z(6Tyr). The source holds these as a separate data set.
Assay [10] deals with MBP-Z(6His). This is another data set of the same source.

Where two headings read alike, the source gives them in different places.

In the assay with MBP-Z(6His) [1], “Zspa affibody with FSY at site 36, Afb(36FSY) (designed binder)” displayed a cross-linking efficiency (day 0) of 60.2%, a cross-linking efficiency (day 1) of 47.7%, a cross-linking efficiency (day 3) of 27.5% and a cross-linking efficiency (day 5) of 17.9%.

Take “Zspa affibody with PFY at site 36, Afb(36PFY) (designed binder)”: the cross-linking efficiency in the assay with MBP-Z(6Tyr) [2] is 33.7%; with MBP-Z(6His) [3] it was 35.3%; with MBP-Z(6Tyr) [4], 27.5%; in the assay with MBP-Z(6His) [1], 5%; with MBP-Z(6Tyr) [5] it was 26.8%; with MBP-Z(6His) [6] it was 37.4%. Moreover, the cross-linking efficiency came out at 44.5% in the assay with MBP-Z(6Tyr) [7], 21.3% with MBP-Z(6His) [8], 5.3% in the assay with MBP-Z(6Tyr) [9] and 21.4% with MBP-Z(6His) [10]. Further, the cross-linking efficiency (1 mM Na2SiO3) came out at 45.7% with MBP-Z(6Tyr) [4] and 18.8% with MBP-Z(6His) [1]. For the same substance, the cross-linking efficiency (no Na2SiO3) worked out at 24.7% with MBP-Z(6Tyr) [4] and 36.9% in the assay with MBP-Z(6His) [1].
